The EC50 is the concentration that produces a half-maximal response. The low end stands for an effect from little substance, the high end for a need for much substance.

In one test the target is CD3 (human). Briefly: CD3 binding, as described in Example 2 (ELISA or FCM). On the technique in general: An ELISA detects its analyte on a solid surface through an enzyme-linked reagent.
Another test deals with PD-1 (binding assay) (UniProt Q15116 25-167, limits assumed). Briefly: FCM or ELISA, graded.
Another test addresses T1, PD-1 (human, UniProt Q15116 25-167, limits assumed).
T1 construct: The reporter assay used Jurkat T cells expressing human PD-1
Description: FCM or ELISA.

Sequence of PD-1 (binding assay) (Q15116 25-167 limits assumed): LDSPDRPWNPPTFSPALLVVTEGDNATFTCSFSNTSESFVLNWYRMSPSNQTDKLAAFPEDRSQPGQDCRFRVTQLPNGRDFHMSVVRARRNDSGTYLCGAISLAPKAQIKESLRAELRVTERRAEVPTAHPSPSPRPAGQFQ
Sequence of CD3 (human) (chain, as listed by the source): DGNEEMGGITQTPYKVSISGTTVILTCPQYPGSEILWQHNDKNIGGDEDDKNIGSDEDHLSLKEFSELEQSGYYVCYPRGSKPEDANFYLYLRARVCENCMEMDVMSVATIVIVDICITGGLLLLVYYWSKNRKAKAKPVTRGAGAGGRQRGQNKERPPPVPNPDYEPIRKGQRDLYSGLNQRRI
T1 sequence (Q15116 25-167 limits assumed): as the sequence (Q15116 25-167 limits assumed) above

B1: Ly2278 (bispecific antibody)
chain 1: QVQLQQSGAELVRPGSSVKISCKASGYAFSSYWMNWVKQRPGQGLEWIGQIWPGDGDTNYNGKFKGKATLTADESSSTAYMQLSSLASEDSAVYFCARRETTTVGRYYYAMDYWGQGTTVTVSSASTKGPSVFPLAPSSKSTSGGTAALGCLVKDYFPEPVTVSWNSGALTSGVHTFPAVLQSSGLYSLSSVVTVPSSSLGTQTYICNVNHKPSNTKVDKKVEPKSCGGGGSGGGGSGGGGSGGGGSEVQLVESGGGLVQPGGSLRLSCAASGFTFSTYAMNWVRQAPGKGLEWVGRIRSKYNNYATYYADSVKGRFTISRDDSKNSLYLQMNSLKTEDTAVYYCVRHGNFGNSYVSWFAYWGQGTLVTVSSGGGGSDKTHTCPPCPAPEAAGPSVFLFPPKPKDTLMISRTPEVTCVVVDVSHEDPEVKFNWYVDGVEVHNAKTKPREEQYNSTYRVVSVLTVLHQDWLNGKEYKCKVSNKALPAPIEKTISKAKGQPREPQVYTLPPSREEMTKNQVSLWCLVKGFYPSDIAVEWESNGQPENNYKTTPPVLDSDGSFFLYSKLTVDKSRWQQGNVFSCSVMHEALHNHYTQKSLSLSPG
chain 2: QVQLQQSGAELVRPGSSVKISCKASGYAFSSYWMNWVKQRPGQGLEWIGQIWPGDGDTNYNGKFKGKATLTADESSSTAYMQLSSLASEDSAVYFCARRETTTVGRYYYAMDYWGQGTTVTVSSASTKGPSVFPLAPSSKSTSGGTAALGCLVKDYFPEPVTVSWNSGALTSGVHTFPAVLQSSGLYSLSSVVTVPSSSLGTQTYICNVNHKPSNTKVDKKVEPKSCGGGGSGGGGSGGGGSGGGGSQAVVTQEPSLTVSPGGTVTLTCRSSTGAVTTSNYANWVQQKPGQAPRGLIGGTNKRAPWTPARFSGSLLGGKAALTITGAQAEDEADYYCALWYSNLWVFGGGTKLTVLGGGGSDKTHTCPPCPAPEAAGPSVFLFPPKPKDTLMISRTPEVTCVVVDVSHEDPEVKFNWYVDGVEVHNAKTKPREEQYNSTYRVVSVLTVLHQDWLNGKEYKCKVSNKALPAPIEKTISKAKGQPREPQVYTLPPSREEMTKNQVSLSCAVKGFYPSDIAVEWESNGQPENNYKTTPPVLDSDGSFFLVSKLTVDKSRWQQGNVFSCSVMHEALHNRFTQKSLSLSPG
light: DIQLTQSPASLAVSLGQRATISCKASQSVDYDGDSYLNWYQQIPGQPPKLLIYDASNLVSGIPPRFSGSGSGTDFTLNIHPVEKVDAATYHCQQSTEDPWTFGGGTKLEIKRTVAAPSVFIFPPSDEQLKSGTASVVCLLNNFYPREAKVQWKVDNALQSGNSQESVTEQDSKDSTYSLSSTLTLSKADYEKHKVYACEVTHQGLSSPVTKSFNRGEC
notes: CD19 Fabs, central CD3 Fv
Take B1: in the test with CD3, the response was half-maximal at 1.46 µg/mL (EC50).

B2: Ly1965 (bispecific antibody)
chain 1: QVQLVQSGAEVKKPGASVKVSCKASGYTFTSYVMHWVRQKPGQGLEWIGYINPYNEGTESTDKFKGRATMTSDKSTSTVYMELSSLRSEDTAVYYCASIYYGYEGTYFGVWGQGTLVTVSSASTKGPSVFPLAPSSKSTSGGTAALGCLVKDYFPEPVTVSWNSGALTSGVHTFPAVLQSSGLYSLSSVVTVPSSSLGTQTYICNVNHKPSNTKVDKKVEPKSCGGGGSGGGGSGGGGSGGGGSEVQLVESGGGLVQPGGSLRLSCAASGFTFSTYAMNWVRQAPGKGLEWVGRIRSKYNNYATYYADSVKGRFTISRDDSKNSLYLQMNSLKTEDTAVYYCVRHGNFGNSYVSWFAYWGQGTLVTVSSGGGGSDKTHTCPPCPAPEAAGPSVFLFPPKPKDTLMISRTPEVTCVVVDVSHEDPEVKFNWYVDGVEVHNAKTKPREEQYNSTYRVVSVLTVLHQDWLNGKEYKCKVSNKALPAPIEKTISKAKGQPREPQVYTLPPSREEMTKNQVSLWCLVKGFYPSDIAVEWESNGQPENNYKTTPPVLDSDGSFFLYSKLTVDKSRWQQGNVFSCSVMHEALHNHYTQKSLSLSPG
chain 2: QVQLVQSGAEVKKPGASVKVSCKASGYTFTSYVMHWVRQKPGQGLEWIGYINPYNEGTESTDKFKGRATMTSDKSTSTVYMELSSLRSEDTAVYYCASIYYGYEGTYFGVWGQGTLVTVSSASTKGPSVFPLAPSSKSTSGGTAALGCLVKDYFPEPVTVSWNSGALTSGVHTFPAVLQSSGLYSLSSVVTVPSSSLGTQTYICNVNHKPSNTKVDKKVEPKSCGGGGSGGGGSGGGGSGGGGSQAVVTQEPSLTVSPGGTVTLTCRSSTGAVTTSNYANWVQQKPGQAPRGLIGGTNKRAPWTPARFSGSLLGGKAALTITGAQAEDEADYYCALWYSNLWVFGGGTKLTVLGGGGSDKTHTCPPCPAPEAAGPSVFLFPPKPKDTLMISRTPEVTCVVVDVSHEDPEVKFNWYVDGVEVHNAKTKPREEQYNSTYRVVSVLTVLHQDWLNGKEYKCKVSNKALPAPIEKTISKAKGQPREPQVYTLPPSREEMTKNQVSLSCAVKGFYPSDIAVEWESNGQPENNYKTTPPVLDSDGSFFLVSKLTVDKSRWQQGNVFSCSVMHEALHNRFTQKSLSLSPG
light: EIVLTQSPATLSLSPGERATLSCRASSSVSYMHWYQQKPGQAPRPWIYATSNLASGIPARFSGSRSGTDYTLTISSLEPEDFAVYYCQQWSSNTLTFGGGTKVEIKRTVAAPSVFIFPPSDEQLKSGTASVVCLLNNFYPREAKVQWKVDNALQSGNSQESVTEQDSKDSTYSLSSTLTLSKADYEKHKVYACEVTHQGLSSPVTKSFNRGEC
notes: B7H3 Fabs, central CD3 Fv
In the test with CD3, B2 showed an EC50 of 0.419 µg/mL.

B3: Ly2281 (bispecific antibody)
heavy 1: QVTLKESGPALVKPTQTLTLTCTFSGFSLSTSGTCVSWIRQPPGKALEWLATICWEDSKGYNPSLKSRLTISKDTSKNQAVLTMTNMDPVDTATYYCARREDSGYFWFPYWGQGTLVTVSSASTKGPSVFPLAPSSKSTSGGTAALGCLVKDYFPEPVTVSWNSGALTSGVHTFPAVLQSSGLYSLSSVVTVPSSSLGTQTYICNVNHKPSNTKVDKKVEPKSCGGGGSGGGGSGGGGSGGGGSQVQLVQSGAEVKKPGASVKVSCKASGYTFAGFEMHWVRQAPGQGLEWMGAIDPKTGGTDYNQKFKDRVTMTRDTSISTAYMELSRLRSDDTAVYYCARDLGYFDVWGQGTLVTVSSGGGGSDKTHTCPPCPAPEAAGPSVFLFPPKPKDTLMISRTPEVTCVVVDVSHEDPEVKFNWYVDGVEVHNAKTKPREEQYNSTYRVVSVLTVLHQDWLNGKEYKCKVSNKALPAPIEKTISKAKGQPREPQVYTLPPSREEMTKNQVSLWCLVKGFYPSDIAVEWESNGQPENNYKTTPPVLDSDGSFFLYSKLTVDKSRWQQGNVFSCSVMHEALHNHYTQKSLSLSPG
heavy 2: QVTLKESGPALVKPTQTLTLTCTFSGFSLSTSGTCVSWIRQPPGKALEWLATICWEDSKGYNPSLKSRLTISKDTSKNQAVLTMTNMDPVDTATYYCARREDSGYFWFPYWGQGTLVTVSSASTKGPSVFPLAPSSKSTSGGTAALGCLVKDYFPEPVTVSWNSGALTSGVHTFPAVLQSSGLYSLSSVVTVPSSSLGTQTYICNVNHKPSNTKVDKKVEPKSCGGGGSGGGGSGGGGSGGGGSDIQMTQSPSSLSASVGDRVTITCRASQDIRSNLNWYQQKPGGAVKLLIYYTSRLHSGVPSRFSGSGSGTDYTLTISSLQPEDFATYFCQQSEKLPRTFGGGTKVEIRGGGGSDKTHTCPPCPAPEAAGPSVFLFPPKPKDTLMISRTPEVTCVVVDVSHEDPEVKFNWYVDGVEVHNAKTKPREEQYNSTYRVVSVLTVLHQDWLNGKEYKCKVSNKALPAPIEKTISKAKGQPREPQVYTLPPSREEMTKNQVSLSCAVKGFYPSDIAVEWESNGQPENNYKTTPPVLDSDGSFFLVSKLTVDKSRWQQGNVFSCSVMHEALHNRFTQKSLSLSPG
light: NIQMTQSPSSLSASVGDRVTITCKAGQNVNNYLAWYQQKPGKAPKVLIFNANSLQTGVPSRFSGSGSGTDFTLTISSLQPEDFATYYCQQYNSWPTFGGGTKVEIKRTVAAPSVFIFPPSDEQLKSGTASVVCLLNNFYPREAKVQWKVDNALQSGNSQESVTEQDSKDSTYSLSSTLTLSKADYEKHKVYACEVTHQGLSSPVTKSFNRGEC
notes: PD-1 Fabs (Ly516) x central CD137 Fv
Take B3: the binding result with PD-1 (binding assay) is “binds”.

B4: Ly2281 (bispecific antibody)
chain 1: B3 heavy 1
chain 2: B3 heavy 2
light: B3 light
notes: PD-1/CD137: two PD-1 Fabs, central CD137 Fv
Consider B4, for which, in the test with PD-1, the binding result is on record as “binds”.

B5: Ly2280 (bispecific antibody)
heavy 1: not shown
heavy 2: QVTLKESGPALVKPTQTLTLTCTFSGFSLSTSGTCVSWIRQPPGKALEWLATICWEDSKGYNPSLKSRLTISKDTSKNQAVLTMTNMDPVDTATYYCARREDSGYFWFPYWGQGTLVTVSSASTKGPSVFPLAPSSKSTSGGTAALGCLVKDYFPEPVTVSWNSGALTSGVHTFPAVLQSSGLYSLSSVVTVPSSSLGTQTYICNVNHKPSNTKVDKKVEPKSCGGGGSGGGGSGGGGSGGGGSDIQMTQSPSSVSASVGDRVTITCRASQGIYSWLAWYQQKPGKAPNLLIYTASTLQSGVPSRFSGSGSGTDFTLTISSLQPEDFATYYCQQANIFPLTFGGGTKVEIKGGGGSDKTHTCPPCPAPEAAGPSVFLFPPKPKDTLMISRTPEVTCVVVDVSHEDPEVKFNWYVDGVEVHNAKTKPREEQYNSTYRVVSVLTVLHQDWLNGKEYKCKVSNKALPAPIEKTISKAKGQPREPQVYTLPPSREEMTKNQVSLSCAVKGFYPSDIAVEWESNGQPENNYKTTPPVLDSDGSFFLVSKLTVDKSRWQQGNVFSCSVMHEALHNRFTQKSLSLSPG
light: B3 light
notes: PD-1 Fabs (Ly516) x central CD40 Fv (TM383)
Consider B5, for which the binding result with PD-1 (binding assay) was “binds”.

The values above are taken from patent US20250388669A1 (published 2025).
